In PMC3285688, “Active Site Mutations Change the Cleavage Specificity of Neprilysin” (PLoS ONE, 2012):
Where “and” joins values, the source holds several entries; their conditions need not be identical. Equal entries are not always repeated. Entries after “also recorded” stand apart in the source; their conditions may differ.

Tests used:
Type in all cases: biochemical
insulin B chain [1] = assay: Rate of insulin B chain hydrolysis (HPLC)
Description: (§1) Cleavage of physiological peptides was measured via reverse phase high performance liquid chromatography (HPLC) following incubation of the purified NEP or its mutants with 15 µM insulin B chain (Sigma Aldrich), 24 µM Aß1–40 (Anaspec), or 64 µM leu-ENK (Sigma) in 100 µL of 20 mM MES, pH 6.5, at 37°C. Reactions were run in triplicate. HPLC was carried out in a Vydac C4 column using a linear gradient from 0.1% trifluoroacetic acid (TFA) in 95% water, 5% acetonitrile to 0.1% TFA in 50% acetonitrile/water at a flow rate of 1 mL/min. Peptides and hydrolysis products were detected at 214 nm and quantified by measuring peak areas. Peptides obtained from HPLC were analyzed on an Applied Biosystems 4800 MALDI TOF/TOF Proteomics Analyzer at the University of Kentucky Proteomics core. This facility is supported in part by grant P20RR020171 from the NIH/NCRR.
(§2) Statistical analysis comparing wild-type NEP and its mutants was performed with Prism 4 software using a two-tailed paired t-test with a 95% confidence interval.

insulin B chain [2] = assay: Time course of product peak accumulation from insulin B chain
Description: As a representative of the NEP^F563 and NEP^S546 mutants, we compared the cleavage profile of NEP^F563L and NEP^S546E to that of NEP using time course experiments, Figure 2 . By adjusting the amount of NEP mutant used, the rate of hydrolysis of insulin B chain by all NEP forms was virtually identical. […] Since rates were based on peak areas measured at 214 nm, which in turn is dependent on both the number of peptide bonds and the number of aromatic residues within a given peptide, only the observed rates of change for a particular peptide product can be compared between enzyme forms. A comparison of the rate of change of different peaks within the same enzyme form or between enzyme forms is not valid under our conditions of analysis.
as §1

leu-ENK [3] = assay: Dual substrate assay: leu-ENK hydrolysis in presence of insulin B chain; conditions: 15 µM insulin B chain and 64 µM leu-ENK together, 37°C, 20 mM MES buffer, pH 6.5
Description: (§3) The rate of cleavage of a substrate mixture is determined by both the kcat for that substrate as well by the affinity for the substrate. […] This is expected, given that each peptide acts as a competitive inhibitor of the other. […] That is the ratio for leu-ENK/insulin B chain cleavage is 3 for NEP^S546E compared to 6 for wild-type NEP.
as §1

Aß1–40 [4] = assay: Time course of product peak accumulation from Aß1–40
Description: Similar to the analysis conducted with insulin B chain, the linear rate of product accumulation was determined for each peak and normalized to the amount of protein in the reaction, Table 7 . Unlike the hydrolysis of insulin B chain, the hydrolysis of Aß1–40, even at the earliest time points, produced products resulting from multiple cleavage events. Out of the 12 identified product peaks, only 3 could be produced by a single cleavage. Rates for all cleavages were calculated and are given in Figure 4, B–D , but only the three putative primary cleavage sites can be compared.
as §1

insulin B chain [5] = assay: Insulin B chain as alternate substrate (competitive) inhibitor of Glut-Ala-Ala-Phe-MNA hydrolysis (Dixon plot); conditions: insulin B chain 1 to 40 µM as competitive inhibitor of Glut-Ala-Ala-Phe-MNA hydrolysis by the enzyme form, 37°C, 20 mM MES, pH 6.5, ID50 converted to Ki
Description: (§4) Kinetic constants for NEP and its mutants were obtained using the assay conditions noted above, but with Glut-Ala-Ala-Phe-MNA varied from 20 to 500 µM. Typically 12 data points were obtained. The data were fit to the Michaelis-Menten equation using Prism4 software. The Ki for insulin B chain was obtained by measuring the rate of Glut-Ala-Ala-Phe-MNA hydrolysis in the presence of varying concentrations of insulin B chain from 1 to 40 µM. Data were fit to a Dixon plot (1/rate versus [insulin B chain]) using Prism4 software and the ID50 obtained as the –x intercept, where ID50 corresponds to the concentration of insulin producing 50% inhibition. The actual Ki was obtained from the equation: ID50 = Ki (1+ [Glut-Ala-Ala-Phe-MNA]/KmGlut-Ala-Ala-Phe-MNA), [33].

[6] = system: leu-ENK and insulin B chain; assay: Dual substrate assay: substrate preference leu-ENK versus insulin B chain
Description: as §3, §1

Aß1–40 [7] = assay: Rate of Aß1–40 hydrolysis (HPLC)
Description: as §1, §2

leu-ENK [8] = assay: Rate of leu-ENK hydrolysis (HPLC)
Description: as §1, §2

insulin B chain [9] = assay: Dual substrate assay: insulin B chain hydrolysis in presence of leu-ENK; conditions: 15 µM insulin B chain and 64 µM leu-ENK together, 37°C, 20 mM MES buffer, pH 6.5
Description: as §3, §1

[10] = Hydrolysis of synthetic substrate Glut-Ala-Ala-Phe-MNA by NEP and mutants (fluorogenic)
Description: Reactions of 400 µl contained 100 µM Glut-Ala-Ala-Phe-MNA, 1 µg of aminopeptidase and 15 to 100 ng of NEP or mutant NEP depending on their activity in 20 mM MES buffer, pH 6.5. Activity was monitored with a Spectra Max Gemini XS plate reader using an excitation wavelength of 340 nm and an emission wavelength of 425 nm.
as §4

[11] = 15 µM insulin B chain, 37°C, 20 mM MES, pH 6.5, 0-180 min, HPLC peak area 214 nm, linear phase
[12] = 24 µM Aß1–40, 37°C, 20 mM MES, pH 6.5, 0-360 min, HPLC peak area, linear phase

B1: NEP^F563L: neprilysin active site mutant, Phe563 to leucine (protein, UniProt P08473 2-750, looked up, variant F563L)
Neprilysin: GKSESQMDITDINTPKPKKKQRWTPLEISLSVLVLLLTIIAVTMIALYATYDDGICKSSDCIKSAARLIQNMDATTEPCTDFFKYACGGWLKRNVIPETSSRYGNFDILRDELEVVLKDVLQEPKTEDIVAVQKAKALYRSCINESAIDSRGGEPLLKLLPDIYGWPVATENWEQKYGASWTAEKAIAQLNSKYGKKVLINLFVGTDDKNSVNHVIHIDQPRLGLPSRDYYECTGIYKEACTAYVDFMISVARLIRQEERLPIDENQLALEMNKVMELEKEIANATAKPEDRNDPMLLYNKMTLAQIQNNFSLEINGKPFSWLNFTNEIMSTVNISITNEEDVVVYAPEYLTKLKPILTKYSARDLQNLMSWRFIMDLVSSLSRTYKESRNAFRKALYGTTSETATWRRCANYVNGNMENAVGRLYVEAAFAGESKHVVEDLIAQIREVFIQTLDDLTWMDAETKKRAEEKALAIKERIGYPDDIVSNDNKLNNEYLELNYKEDEYFENIIQNLKFSQSKQLKKLREKVDKDEWISGAAVVNAFYSSGRNQIVFPAGILQPPLFSAQQSNSLNYGGIGMVIGHEITHGFDDNGRNFNKDGDLVDWWTQQSASNFKEQSQCMVYQYGNFSWDLAGGQHLNGINTLGENIADNGGLGQAYRAYQNYIKKNGEEKLLPGLDLNHKQLFFLNFAQVWCGTYRPEYAVNSIKTDVHSPGNFRIIGTLQNSAEFSEAFHCRKNSYMNPEKKCRVW
Rate of hydrolysis of Insulin B Chain (insulin B chain [1]; 15 µM insulin B chain, 37°C, 20 mM MES buffer, pH 6.5, disappearance of substrate by HPLC, at least triplicate): 1.17 ± 0.18 pmol/min/ng | Insulin B chain hydrolysis rate relative to NEP (insulin B chain [1]; overall rate, 15 µM insulin B chain): 1.4 times | Preference for insulin B chain over Aß1–40 (insulin B chain [1]; relative to NEP, from separate single-substrate rates): greater than 2 fold | Rate of accumulation of peak 1–5 (single cleavage H^5-L^6) (insulin B chain [2]; [11]): 83 Δarea/min/ng | Rate of accumulation of peak 1–10 (single cleavage H^10-L^11) (insulin B chain [2]; [11]): 135 Δarea/min/ng | Rate of accumulation of peak 1–11 (single cleavage L^11-V^12) (insulin B chain [2]; [11]): 16 Δarea/min/ng | Rate of accumulation of peak 1–14 (single cleavage A^14-L^15) (insulin B chain [2]; [11]): 266 Δarea/min/ng | Rate of accumulation of peak 1–16 (single cleavage Y^16-L^17) (insulin B chain [2]; [11]): 25 Δarea/min/ng | Rate of accumulation of peak 15–23 (two cleavages A^14-L^15, G^23-F^24) (insulin B chain [2]; [11]): 64 Δarea/min/ng | Rate of accumulation of peak 15–30 (single cleavage A^14-L^15) (insulin B chain [2]; [11]): 282 Δarea/min/ng | Rate of accumulation of peak 17–24 (two cleavages Y^16-L^17, F^24-F^25) (insulin B chain [2]; [11]): 25 Δarea/min/ng | Rate of accumulation of peak 17–30 (single cleavage Y^16-L^17) (insulin B chain [2]; [11]): 112 Δarea/min/ng | Rate of accumulation of peak 24–30 (single cleavage G^23-F^24) (insulin B chain [2]; [11]): 290 Δarea/min/ng | Unique or missing cleavage sites in insulin B chain versus NEP (insulin B chain [2]; 30% substrate hydrolysis, HPLC profile): no unique or missing cleavage sites | Cleavage at A^14-L^15 in insulin B chain relative to NEP (insulin B chain [2]; times the NEP rate): ~1.4 | Cleavage at H^5-L^6 in insulin B chain relative to NEP (insulin B chain [2]; times the NEP rate): ~1.4 | Cleavage at H^10-L^11 in insulin B chain relative to NEP (insulin B chain [2]; times the NEP rate): 0.8 | Cleavage at L^11-V^12 in insulin B chain relative to NEP (insulin B chain [2]; times the NEP rate): 0.2 | Cleavage at Y^16-L^17 in insulin B chain relative to NEP (insulin B chain [2]; times the NEP rate): ~0.7 | leu-ENK hydrolysis rate, dual substrate assay (leu-ENK [3]): 0.97 ± 0.06 pmol/min/ng | leu-ENK hydrolysis, activity relative to the uninhibited value (leu-ENK [3]; numbers in parenthesis): 0.62 | Accumulation rate of peak Aß 1–9 (single cleavage G^9-Y^10) (Aß1–40 [4]; [12]): 0 Δarea/min/ng | Accumulation rate of peak Aß 1–16 (single cleavage K^16-L^17) (Aß1–40 [4]; [12]): 17 Δarea/min/ng | Accumulation rate of peak Aß 1–17 (single cleavage L^17-V^18) (Aß1–40 [4]; [12]): 22 Δarea/min/ng | Accumulation rate of peak Aß 4–9 (dual cleavages A^3-F^4, G^9-Y^10) (Aß1–40 [4]; [12]): 5 Δarea/min/ng | Accumulation rate of peak Aß 4–16 (dual cleavages A^3-F^4, K^16-L^17) (Aß1–40 [4]; [12]): 5 Δarea/min/ng | Accumulation rate of peak Aß 4–17 (dual cleavages A^3-F^4, L^17-V^18) (Aß1–40 [4]; [12]): 12 Δarea/min/ng | Accumulation rate of peak Aß 10–16 (dual cleavages G^9-Y^10, K^16-L^17) (Aß1–40 [4]; [12]): 11 Δarea/min/ng | Accumulation rate of peak Aß 10–17 (dual cleavages G^9-Y^10, L^17-V^18) (Aß1–40 [4]; [12]): 8 Δarea/min/ng | Accumulation rate of peak Aß 12–17 (dual cleavages E^11-V^12, L^17-V^18) (Aß1–40 [4]; [12]): 1 Δarea/min/ng | Accumulation rate of peak Aß 20–28 (dual cleavages F^19-F^20, K^28-G^29) (Aß1–40 [4]; [12]): 5 Δarea/min/ng | Accumulation rate of peak Aß 20–29 (dual cleavages F^19-F^20, G^29-A^30) (Aß1–40 [4]; [12]): 6 Δarea/min/ng | Accumulation rate of peak Aß 20–30 (dual cleavages F^19-F^20, A^30-I^31) (Aß1–40 [4]; [12]): 26 Δarea/min/ng | Presence of wild-type product peaks from Aß1–40 (in words) (Aß1–40 [4]; HPLC profile at ∼30% hydrolysis, Aß1–9 peak in case of NEP^F563L): the peak corresponding to Aß1–9 was not present | Cleavage at L^17-V^18 in Aß1–40 relative to wild-type NEP (Aß1–40 [4]; product Aß1–17): 25% | Cleavage of the G^9-Y^10 bond in Aß1–40 (in words) (Aß1–40 [4]; versus NEP, inferred from Aß1–9, Aß10–17): much slower rate; also recorded: appears to cleave the G^9-Y^10 bond | Ki (insulin B chain [5]): 1.5 ± 0.3 µM | Substrate preference leu-ENK/insulin B chain (in words) ([6]; dual substrate assay, versus wild-type): no change in overall substrate preference | Ratio leu-ENK insulin B chain ([6]; ratio of rates, 15 µM insulin B chain and 64 µM leu-ENK together): 5.1 | Rate of hydrolysis of Aß1–40 (Aß1–40 [7]; 24 µM Aß1–40, 37°C, 20 mM MES buffer, pH 6.5, disappearance of substrate by HPLC, at least triplicate): 116 ± 4 fmol/min/ng | Aß1–40 hydrolysis rate relative to wild-type NEP (Aß1–40 [7]; overall rate as fraction/times of wild-type rate, 24 µM Aß1–40): nearly half the rate of the wild-type enzyme | Rate of hydrolysis of leu-ENK (leu-ENK [8]; 64 µM leu-ENK, 37°C, 20 mM MES buffer, pH 6.5, disappearance of substrate by HPLC, at least triplicate): 1.57 ± 0.32 pmol/min/ng | leu-ENK cleavage rate relative to wild-type NEP rate (leu-ENK [8]; 64 µM leu-ENK, pH 6.5, 37°C): approximately 80% | Activity for both Glut-Ala-Ala-Phe-MNA and leu-ENK (in words) (leu-ENK [8]; versus wild-type): near wild-type levels of activity | Insulin B Chain hydrolysis rate, dual substrate assay (insulin B chain [9]): 0.19 ± 0.03 pmol/min/ng | Activity relative to wild-type enzyme (Figure S2 legend, in words) [10]: same activity as wild-type enzyme | Specific Activity (Glut-Ala-Ala-Phe-MNA cleavage) ([10]; 100 µM Glut-Ala-Ala-Phe-MNA, 37°C, 20 mM MES buffer, pH 6.5, fluorescence ex 340 nm, em 425 nm): 44 pmol/min/ng and 43.6 ± 0.1 pmol/min/ng | Km ([10]; Glut-Ala-Ala-Phe-MNA 20 to 500 µM, 37°C, 20 mM MES buffer, pH 6.5, Michaelis-Menten fit): 81 ± 11 µM
